# T1: LIN7B, Q9HAP6
# T1 sequence (Q9HAP6 88-185, limits assumed, looked up): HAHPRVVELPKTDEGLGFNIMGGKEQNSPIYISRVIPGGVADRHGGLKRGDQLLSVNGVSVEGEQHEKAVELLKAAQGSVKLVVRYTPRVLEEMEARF
# T2: NHERF3_1, Q5T2W1
# T2 sequence (Q5T2W1 4-100, limits assumed, looked up): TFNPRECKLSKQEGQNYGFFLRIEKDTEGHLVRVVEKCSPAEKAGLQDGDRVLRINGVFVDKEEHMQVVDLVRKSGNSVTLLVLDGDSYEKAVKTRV
# T3: SNTG1, Q9NSN8
# T3 sequence (Q9NSN8 52-150, limits assumed, looked up): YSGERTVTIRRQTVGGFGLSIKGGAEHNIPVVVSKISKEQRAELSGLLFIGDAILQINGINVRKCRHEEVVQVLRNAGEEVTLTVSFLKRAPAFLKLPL
# T4: LRRC7, Q96NW7
# T4 sequence (Q96NW7 1440-1537, limits assumed, looked up): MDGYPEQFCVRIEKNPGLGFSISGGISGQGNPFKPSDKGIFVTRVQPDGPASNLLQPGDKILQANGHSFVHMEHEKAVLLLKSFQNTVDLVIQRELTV
# T5: PCLO, Q9Y6V0
# T5 sequence (Q9Y6V0 4491-4600, limits assumed, looked up): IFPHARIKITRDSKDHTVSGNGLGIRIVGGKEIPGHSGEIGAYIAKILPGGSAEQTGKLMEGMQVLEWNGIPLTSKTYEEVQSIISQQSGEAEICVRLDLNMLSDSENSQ
# T6: CARD11, Q9BXL7
# T6 sequence (Q9BXL7 662-765, limits assumed, looked up): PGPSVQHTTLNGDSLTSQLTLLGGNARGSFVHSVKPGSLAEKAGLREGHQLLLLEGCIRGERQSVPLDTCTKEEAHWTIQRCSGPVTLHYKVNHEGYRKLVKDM
# T7: HTRA3, P83110
# T7 sequence (P83110 354-453, limits assumed, looked up): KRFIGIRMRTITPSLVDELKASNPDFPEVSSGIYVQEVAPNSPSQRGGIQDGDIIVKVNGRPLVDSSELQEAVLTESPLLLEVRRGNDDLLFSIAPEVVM
# T8: NHERF3_3, Q5T2W1
# T8 sequence (Q5T2W1 238-333, limits assumed, looked up): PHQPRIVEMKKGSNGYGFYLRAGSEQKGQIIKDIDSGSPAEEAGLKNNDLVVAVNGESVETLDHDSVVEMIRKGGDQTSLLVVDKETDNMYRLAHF
# T9: LNX2_2, Q8N448
# T9 sequence (Q8N448 334-432, limits assumed, looked up): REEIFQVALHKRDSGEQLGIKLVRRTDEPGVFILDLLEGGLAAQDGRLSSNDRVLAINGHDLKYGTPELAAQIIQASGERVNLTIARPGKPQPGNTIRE
# Biological target: Inadl_10, Q8NI35
# Assay: holdup assay
# Set-up: key: below the threshold = too weak to quantify, mostly under pKd 3.1 to 4
# Conditions: plain residues with an end cap or a label only (N-terminal biotin on a linker: ado-ado)
# Inadl_10, Q8NI35, sequence (Q8NI35 1673-1763): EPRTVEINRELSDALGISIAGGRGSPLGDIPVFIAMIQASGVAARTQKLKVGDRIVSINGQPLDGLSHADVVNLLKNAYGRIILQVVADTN
row,pKd,Binder
1,below the threshold,"STKRKLASAV [NCF1, P14598]"

# Biological target: GRIP2_7, Q9C0E4
# Assay: holdup assay
# Set-up: key: below the threshold = too weak to quantify, mostly under pKd 3.1 to 4
# Conditions: plain residues with an end cap or a label only (N-terminal biotin on a linker: ado-ado)
# GRIP2_7, Q9C0E4, sequence (Q9C0E4 934-1023): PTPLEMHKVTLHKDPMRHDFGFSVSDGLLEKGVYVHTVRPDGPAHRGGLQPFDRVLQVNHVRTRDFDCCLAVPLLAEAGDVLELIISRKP
row,pKd,Binder
1,below the threshold,"STKRKLASAV [NCF1, P14598]"

# Biological target: GRIP2_5, Q9C0E4
# Assay: holdup assay
# Set-up: key: below the threshold = too weak to quantify, mostly under pKd 3.1 to 4
# Conditions: plain residues with an end cap or a label only (N-terminal biotin on a linker: ado-ado)
# GRIP2_5, Q9C0E4, sequence (Q9C0E4 544-642): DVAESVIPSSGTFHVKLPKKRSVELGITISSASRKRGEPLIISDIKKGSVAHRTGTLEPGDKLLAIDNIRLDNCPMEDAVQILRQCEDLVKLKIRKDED
row,pKd,Binder
1,below the threshold,"STKRKLASAV [NCF1, P14598]"

# Biological target: Inadl_5, Q8NI35
# Assay: holdup assay
# Set-up: key: below the threshold = too weak to quantify, mostly under pKd 3.1 to 4
# Conditions: plain residues with an end cap or a label only (N-terminal biotin on a linker: ado-ado)
# Inadl_5, Q8NI35, sequence (Q8NI35 673-780): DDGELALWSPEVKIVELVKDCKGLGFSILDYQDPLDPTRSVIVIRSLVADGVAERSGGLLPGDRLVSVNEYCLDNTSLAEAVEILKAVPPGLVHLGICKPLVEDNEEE
row,pKd,Binder
1,below the threshold,"STKRKLASAV [NCF1, P14598]"

# Biological target: IL16_3, Q14005
# Assay: holdup assay
# Set-up: key: below the threshold = too weak to quantify, mostly under pKd 3.1 to 4
# Conditions: plain residues with an end cap or a label only (N-terminal biotin on a linker: ado-ado)
# IL16_3, Q14005, sequence (Q14005 1107-1207): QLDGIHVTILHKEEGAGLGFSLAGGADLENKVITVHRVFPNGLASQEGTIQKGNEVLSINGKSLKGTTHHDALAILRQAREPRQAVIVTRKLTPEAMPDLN
row,pKd,Binder
1,below the threshold,"STKRKLASAV [NCF1, P14598]"

# Biological target: SCRIB_2, Q14160
# Assay: holdup assay
# Set-up: key: below the threshold = too weak to quantify, mostly under pKd 3.1 to 4
# Conditions: plain residues with an end cap or a label only (N-terminal biotin on a linker: ado-ado)
# SCRIB_2, Q14160, sequence (Q14160 857-960): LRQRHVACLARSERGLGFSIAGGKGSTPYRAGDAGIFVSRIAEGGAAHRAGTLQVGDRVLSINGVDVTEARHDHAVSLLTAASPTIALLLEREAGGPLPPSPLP
row,pKd,Binder
1,below the threshold,"STKRKLASAV [NCF1, P14598]"

# Biological target: T1, LIN7B, Q9HAP6
# Assay: holdup assay
# Set-up: key: below the threshold = too weak to quantify, mostly under pKd 3.1 to 4
# Conditions: plain residues with an end cap or a label only (N-terminal biotin on a linker: ado-ado)
row,pKd,Binder
1,below the threshold,"STKRKLASAV [NCF1, P14598]"

# Biological target: NHERF4_1, Q86UT5-2
# Assay: holdup assay
# Set-up: key: below the threshold = too weak to quantify, mostly under pKd 3.1 to 4
# Conditions: plain residues with an end cap or a label only (N-terminal biotin on a linker: ado-ado)
# NHERF4_1, Q86UT5-2, sequence (Q86UT5 other isoform, or with tags, fused parts or gaps): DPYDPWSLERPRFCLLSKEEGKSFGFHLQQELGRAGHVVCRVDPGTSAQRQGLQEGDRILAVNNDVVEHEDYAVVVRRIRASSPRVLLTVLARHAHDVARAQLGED
row,pKd,Binder
1,below the threshold,"STKRKLASAV [NCF1, P14598]"

# Biological target: T2, NHERF3_1, Q5T2W1
# Assay: holdup assay
# Set-up: key: below the threshold = too weak to quantify, mostly under pKd 3.1 to 4
# Conditions: plain residues with an end cap or a label only (N-terminal biotin on a linker: ado-ado)
row,pKd,Binder
1,below the threshold,"STKRKLASAV [NCF1, P14598]"

# Biological target: PICK1, Q9NRD5
# Assay: holdup assay
# Set-up: key: below the threshold = too weak to quantify, mostly under pKd 3.1 to 4
# Conditions: plain residues with an end cap or a label only (N-terminal biotin on a linker: ado-ado)
# PICK1, Q9NRD5, sequence (Q9NRD5 17-115): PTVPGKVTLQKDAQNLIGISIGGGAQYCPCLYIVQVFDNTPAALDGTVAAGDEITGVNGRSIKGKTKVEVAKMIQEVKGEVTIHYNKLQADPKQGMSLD
row,pKd,Binder
1,below the threshold,"STKRKLASAV [NCF1, P14598]"

# Biological target: T3, SNTG1, Q9NSN8
# Assay: holdup assay
# Set-up: key: below the threshold = too weak to quantify, mostly under pKd 3.1 to 4
# Conditions: plain residues with an end cap or a label only (N-terminal biotin on a linker: ado-ado)
row,pKd,Binder
1,below the threshold,"STKRKLASAV [NCF1, P14598]"

# Biological target: DLG5_1, Q8TDM6
# Assay: holdup assay
# Set-up: key: below the threshold = too weak to quantify, mostly under pKd 3.1 to 4
# Conditions: plain residues with an end cap or a label only (N-terminal biotin on a linker: ado-ado)
# DLG5_1, Q8TDM6, sequence (Q8TDM6 617-713): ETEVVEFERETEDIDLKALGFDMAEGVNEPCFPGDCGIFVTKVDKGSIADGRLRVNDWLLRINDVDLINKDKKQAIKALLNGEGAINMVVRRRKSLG
row,pKd,Binder
1,below the threshold,"STKRKLASAV [NCF1, P14598]"

# Biological target: DLG4_3, P78352
# Assay: holdup assay
# Set-up: key: below the threshold = too weak to quantify, mostly under pKd 3.1 to 4
# Conditions: plain residues with an end cap or a label only (N-terminal biotin on a linker: ado-ado)
# DLG4_3, P78352, sequence (P78352 306-403): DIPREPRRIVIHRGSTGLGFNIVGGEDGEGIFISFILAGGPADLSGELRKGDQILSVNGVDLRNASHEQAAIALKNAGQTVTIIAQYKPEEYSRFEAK
row,pKd,Binder
1,3.67,"STKRKLASAV [NCF1, P14598]"

# Biological target: T4, LRRC7, Q96NW7
# Assay: holdup assay
# Set-up: key: below the threshold = too weak to quantify, mostly under pKd 3.1 to 4
# Conditions: plain residues with an end cap or a label only (N-terminal biotin on a linker: ado-ado)
row,pKd,Binder
1,below the threshold,"STKRKLASAV [NCF1, P14598]"

# Biological target: T5, PCLO, Q9Y6V0
# Assay: holdup assay
# Set-up: key: below the threshold = too weak to quantify, mostly under pKd 3.1 to 4
# Conditions: plain residues with an end cap or a label only (N-terminal biotin on a linker: ado-ado)
row,pKd,Binder
1,below the threshold,"STKRKLASAV [NCF1, P14598]"

# Biological target: T6, CARD11, Q9BXL7
# Assay: holdup assay
# Set-up: key: below the threshold = too weak to quantify, mostly under pKd 3.1 to 4
# Conditions: plain residues with an end cap or a label only (N-terminal biotin on a linker: ado-ado)
row,pKd,Binder
1,below the threshold,"STKRKLASAV [NCF1, P14598]"

# Biological target: NHERF4_2, Q86UT5
# Assay: holdup assay
# Set-up: key: below the threshold = too weak to quantify, mostly under pKd 3.1 to 4
# Conditions: plain residues with an end cap or a label only (N-terminal biotin on a linker: ado-ado)
# NHERF4_2, Q86UT5, sequence (Q86UT5 220-308): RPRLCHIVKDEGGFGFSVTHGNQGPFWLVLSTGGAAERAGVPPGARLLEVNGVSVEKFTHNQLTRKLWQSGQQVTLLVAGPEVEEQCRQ
row,pKd,Binder
1,below the threshold,"STKRKLASAV [NCF1, P14598]"

# Biological target: MAGI2_4, Q86UL8
# Assay: holdup assay
# Set-up: key: below the threshold = too weak to quantify, mostly under pKd 3.1 to 4
# Conditions: plain residues with an end cap or a label only (N-terminal biotin on a linker: ado-ado)
# MAGI2_4, Q86UL8, sequence (Q86UL8 772-865): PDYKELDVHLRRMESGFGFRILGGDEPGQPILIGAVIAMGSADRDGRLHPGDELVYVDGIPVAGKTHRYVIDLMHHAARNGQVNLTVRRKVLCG
row,pKd,Binder
1,below the threshold,"STKRKLASAV [NCF1, P14598]"

# Biological target: LAP2, Q96RT1
# Assay: holdup assay
# Set-up: key: below the threshold = too weak to quantify, mostly under pKd 3.1 to 4
# Conditions: plain residues with an end cap or a label only (N-terminal biotin on a linker: ado-ado)
# LAP2, Q96RT1, sequence (Q96RT1 other isoform, or with tags, fused parts or gaps): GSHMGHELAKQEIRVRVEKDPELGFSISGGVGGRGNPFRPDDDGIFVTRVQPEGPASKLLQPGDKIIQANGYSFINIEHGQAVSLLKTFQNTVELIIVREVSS
row,pKd,Binder
1,below the threshold,"STKRKLASAV [NCF1, P14598]"

# Biological target: LDB3, O75112
# Assay: holdup assay
# Set-up: key: below the threshold = too weak to quantify, mostly under pKd 3.1 to 4
# Conditions: plain residues with an end cap or a label only (N-terminal biotin on a linker: ado-ado)
# LDB3, O75112, sequence (O75112 1-94): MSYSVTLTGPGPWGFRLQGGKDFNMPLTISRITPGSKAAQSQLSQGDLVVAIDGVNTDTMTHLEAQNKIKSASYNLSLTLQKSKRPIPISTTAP
row,pKd,Binder
1,below the threshold,"STKRKLASAV [NCF1, P14598]"

# Biological target: T7, HTRA3, P83110
# Assay: holdup assay
# Set-up: key: below the threshold = too weak to quantify, mostly under pKd 3.1 to 4
# Conditions: plain residues with an end cap or a label only (N-terminal biotin on a linker: ado-ado)
row,pKd,Binder
1,below the threshold,"STKRKLASAV [NCF1, P14598]"

# Biological target: GOPC, Q9HD26
# Assay: holdup assay
# Set-up: key: below the threshold = too weak to quantify, mostly under pKd 3.1 to 4
# Conditions: plain residues with an end cap or a label only (N-terminal biotin on a linker: ado-ado)
row,pKd,Binder
1,below the threshold,"STKRKLASAV [NCF1, P14598]"

# Biological target: T8, NHERF3_3, Q5T2W1
# Assay: holdup assay
# Set-up: key: below the threshold = too weak to quantify, mostly under pKd 3.1 to 4
# Conditions: plain residues with an end cap or a label only (N-terminal biotin on a linker: ado-ado)
row,pKd,Binder
1,below the threshold,"STKRKLASAV [NCF1, P14598]"

# Biological target: GRID2IP_2, A4D2P6
# Assay: holdup assay
# Set-up: key: below the threshold = too weak to quantify, mostly under pKd 3.1 to 4
# Conditions: plain residues with an end cap or a label only (N-terminal biotin on a linker: ado-ado)
# GRID2IP_2, A4D2P6, sequence (A4D2P6 272-370): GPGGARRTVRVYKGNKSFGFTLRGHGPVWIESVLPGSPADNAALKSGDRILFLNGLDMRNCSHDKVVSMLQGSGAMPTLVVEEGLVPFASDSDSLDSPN
row,pKd,Binder
1,4.28,"STKRKLASAV [NCF1, P14598]"

# Biological target: T9, LNX2_2, Q8N448
# Assay: holdup assay
# Set-up: key: below the threshold = too weak to quantify, mostly under pKd 3.1 to 4
# Conditions: plain residues with an end cap or a label only (N-terminal biotin on a linker: ado-ado)
row,pKd,Binder
1,below the threshold,"STKRKLASAV [NCF1, P14598]"

# Biological target: SCRIB_3, Q14160
# Assay: holdup assay
# Set-up: key: below the threshold = too weak to quantify, mostly under pKd 3.1 to 4
# Conditions: plain residues with an end cap or a label only (N-terminal biotin on a linker: ado-ado)
# SCRIB_3, Q14160, sequence (Q14160 999-1103): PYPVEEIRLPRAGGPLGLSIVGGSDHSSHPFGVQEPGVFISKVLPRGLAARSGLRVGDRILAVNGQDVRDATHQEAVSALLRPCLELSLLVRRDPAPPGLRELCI
row,pKd,Binder
1,3.55,"STKRKLASAV [NCF1, P14598]"

# Biological target: TJP2_1, Q9UDY2
# Assay: holdup assay
# Set-up: key: below the threshold = too weak to quantify, mostly under pKd 3.1 to 4
# Conditions: plain residues with an end cap or a label only (N-terminal biotin on a linker: ado-ado)
# TJP2_1, Q9UDY2, sequence (Q9UDY2 24-128): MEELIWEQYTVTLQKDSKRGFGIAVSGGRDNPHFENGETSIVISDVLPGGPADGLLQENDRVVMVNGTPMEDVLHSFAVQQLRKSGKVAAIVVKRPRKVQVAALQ
row,pKd,Binder
1,below the threshold,"STKRKLASAV [NCF1, P14598]"

# Biological target: SNX27, Q96L92
# Assay: holdup assay
# Set-up: key: below the threshold = too weak to quantify, mostly under pKd 3.1 to 4
# Conditions: plain residues with an end cap or a label only (N-terminal biotin on a linker: ado-ado)
row,pKd,Binder
1,below the threshold,"STKRKLASAV [NCF1, P14598]"

# Source: paper PMC9482650, “Quantitative fragmentomics allow affinity mapping of interactomes” (Nature Communications, 2022)
